Results on six compounds are retold here after PMC3815676 (Journal of immunology (Baltimore, Md. : 1950), 2013).

pEC50: −log10 of the molar value. Where two headings read alike, the source gives them in different places. A value given as a limit tells only on which side of the number the result lay.

Assay [1] concerns CD4 T cell clone BDC-5.2.9. It is filed as cell-based, NOD mouse. To be noted: 24 h.
Assay [2] addresses islet amyloid polypeptide (IAPP), peptide KG38 peptide on I-Ag7 (mouse). In words: IFN-γ ELISA. For orientation: ELISA stands for enzyme-linked immunosorbent assay.
The target in assay [3] is islet amyloid polypeptide (IAPP), peptide KV17 peptide on I-Ag7 (mouse). In words: IFN-γ ELISA.
In assay [4] the target is islet amyloid polypeptide (IAPP), peptide KN14 peptide on I-Ag7 (mouse). In words: IFN-γ ELISA.
Assay [5] has as its target islet amyloid polypeptide (IAPP), peptide KS20 peptide on I-Ag7 (mouse). In words: IFN-γ ELISA.
In assay [6] the target is islet amyloid polypeptide (IAPP), peptide NS18 peptide on I-Ag7 (mouse). The assay can be described thus: IFN-γ ELISA.
Assay [7] deals with islet amyloid polypeptide (IAPP), peptide KQ10 peptide on I-Ag7 (mouse). In words: IFN-γ ELISA.
Assay [8] deals with islet amyloid polypeptide (IAPP), peptide CS19 peptide on I-Ag7 (mouse). In words: IFN-γ ELISA.
Assay [9] has as its target islet amyloid polypeptide (IAPP), peptide TS17 peptide on I-Ag7 (mouse). In words: IFN-γ ELISA.
Where [10] appears, read: T cell clone BDC-5.2.9 (2 × 10^4) with peritoneal exudate cells (2.5 × 10^4) and peptide, IFN-γ in culture supernatants of duplicate wells by ELISA.

Usually pEC50 stands for the EC50 on a negative log10 scale, so that one unit is a factor of ten. For the compound `CC(C)C[C@H](NC(=O)[C@H](CC(N)=O)NC(=O)[C@H](CC(N)=O)NC(=O)[C@H](CO)NC(=O)[C@H](CO)NC(=O)[C@H](CCCNC(=N)N)NC(=O)[C@@H](NC(=O)[C@H](CC(C)C)NC(=O)[C@H](Cc1ccccc1)NC(=O)[C@H](CC(N)=O)NC(=O)[C@H](C)NC(=O)[C@H](CC(C)C)NC(=O)[C@H](CCCNC(=N)N)NC(=O)[C@H](CCC(N)=O)NC(=O)[C@@H](NC(=O)[C@H](C)NC(=O)[C@@H]1CSSC[C@H](NC(=O)[C@@H](N)CCCCN)C(=O)N[C@@H](CC(N)=O)C(=O)N[C@@H]([C@@H](C)O)C(=O)N[C@@H](C)C(=O)N[C@@H]([C@@H](C)O)C(=O)N1)[C@@H](C)O)C(C)C)C(=O)NCC(=O)N1CCC[C@H]1C(=O)N[C@H](C(=O)N[C@@H](CC(C)C)C(=O)N1CCC[C@H]1C(=O)N1CCC[C@H]1C(=O)N[C@H](C(=O)N[C@@H](CC(N)=O)C(=O)N[C@H](C(=O)NCC(=O)N[C@@H](CO)C(=O)N[C@@H](CC(N)=O)C(=O)N[C@H](C(=O)N[C@@H](Cc1ccc(O)cc1)C(=O)NCC(=O)O)[C@@H](C)O)C(C)C)[C@@H](C)O)C(C)C` [KG38], in assay [1], the pEC50 is 9.70.
In the case of BDC-5.2.9, the EC50 of peptide in assay [2] is 0.2 nM; in [3], 10 nM; in assay [4], > 100000 nM; in assay [5], 0.2 nM; in assay [6], > 100000 nM; in assay [7] it was > 100000 nM. Further, the EC50 of peptide in assay [8] was 5 nM; in assay [9], > 100000 nM.
On to KCNTATCATQ [KQ10], for which the pEC50 in [1] (setting [10]) was < 4.00.
Still for that read-out and setting: the value for KCNTATCATQRLAN [KN14] was < 4.00; that for NTATCATQRLANFLVRSS [NS18] was < 4.00; that for TATCATQRLANFLVRSS [TS17] was < 4.00.
